Measured values from US20070082400A1.

Biological target: human CD40L protein translated from transfected CD40L mRNA (pCR2.1 CD40L WT, >100 nucleotide polyA tail) (human) (UniProt P29965)
Assay: cell-based or functional assay

UniProt P29965, sequence (P29965 whole entry): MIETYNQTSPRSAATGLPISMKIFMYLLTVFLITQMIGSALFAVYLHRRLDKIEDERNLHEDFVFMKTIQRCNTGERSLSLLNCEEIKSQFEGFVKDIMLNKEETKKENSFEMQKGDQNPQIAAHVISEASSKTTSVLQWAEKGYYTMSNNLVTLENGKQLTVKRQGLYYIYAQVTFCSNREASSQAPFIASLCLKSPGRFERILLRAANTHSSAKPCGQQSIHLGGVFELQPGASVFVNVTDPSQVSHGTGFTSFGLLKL

## blocking CD40L monoclonal antibody 24-31 (eBioscience)
  IL-12p70 (pg/ml), 'Cocktail' matured and reactivated DCs co-cultured with CD40L mRNA-transfected HeLa cells plus IFN-gamma plus 24-31: 2.5 pg/mL
  IL-12p70 release by CD40L mRNA-transfected DCs cultured with IFN-gamma and 10 or 50 ug/ml blocking anti-CD40L antibody: 50%
